Measurements as given in article PMC10786891, “Massively parallel profiling of RNA-targeting CRISPR-Cas13d”.

T1: EsCas13d, nuclease-dead (Eubacterium siraeum, UniProt B0MS50, R295A;H300A;R849A;H854A)
T1 sequence: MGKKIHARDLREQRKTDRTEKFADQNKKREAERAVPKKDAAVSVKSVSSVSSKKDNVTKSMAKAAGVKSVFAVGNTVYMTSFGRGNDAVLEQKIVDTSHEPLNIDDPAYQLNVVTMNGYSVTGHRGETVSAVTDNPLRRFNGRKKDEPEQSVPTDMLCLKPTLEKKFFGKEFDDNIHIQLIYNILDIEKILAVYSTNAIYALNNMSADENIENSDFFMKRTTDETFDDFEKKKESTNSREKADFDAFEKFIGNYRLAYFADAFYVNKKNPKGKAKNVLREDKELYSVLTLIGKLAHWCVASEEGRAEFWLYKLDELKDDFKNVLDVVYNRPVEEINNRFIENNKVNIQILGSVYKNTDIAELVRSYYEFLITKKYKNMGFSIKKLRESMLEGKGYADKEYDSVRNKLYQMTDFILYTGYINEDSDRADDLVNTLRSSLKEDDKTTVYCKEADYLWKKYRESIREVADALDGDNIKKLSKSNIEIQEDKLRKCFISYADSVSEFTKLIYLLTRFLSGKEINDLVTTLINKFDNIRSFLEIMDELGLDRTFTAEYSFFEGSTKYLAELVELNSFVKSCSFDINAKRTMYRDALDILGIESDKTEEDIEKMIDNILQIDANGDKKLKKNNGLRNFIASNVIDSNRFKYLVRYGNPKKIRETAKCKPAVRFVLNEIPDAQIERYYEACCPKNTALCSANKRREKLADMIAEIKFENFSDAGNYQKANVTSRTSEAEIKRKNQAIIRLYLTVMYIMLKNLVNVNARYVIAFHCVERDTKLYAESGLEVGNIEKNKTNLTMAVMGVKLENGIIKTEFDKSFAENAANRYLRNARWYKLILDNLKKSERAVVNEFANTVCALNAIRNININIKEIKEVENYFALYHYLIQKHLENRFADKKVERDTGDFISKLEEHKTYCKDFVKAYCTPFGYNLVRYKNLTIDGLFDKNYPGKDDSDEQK

B1: target 1 MT 5'PFS ACU 3'PFS AAA (mixed)
RNA 1: CACCCGUGCAAAAAUGCAGGGGUCUAAAACUGAGCGGAUAACCUCUCUAUGG
RNA 2: GGGAAUGGAUCCACAUCUACGAAUUCACUCCAUAGAGAGGUUAUCCGCUCAAAAAGAUCGGAAGAGCACACGU
B2: target 1 MT 5'PFS UUG 3'PFS AGU (mixed)
RNA 1: CACCCGUGCAAAAAUGCAGGGGUCUAAAACUGAGCGGAUAACCUCUCUAUGG
RNA 2: GGGAAUGGAUCCACAUCUACGAAUUCUUGCCAUAGAGAGGUUAUCCGCUCAAGUAGAUCGGAAGAGCACACGU
B3: target 1 MT 5'PFS GUA 3'PFS CCC (mixed)
RNA 1: CACCCGUGCAAAAAUGCAGGGGUCUAAAACUGAGCGGAUAACCUCUCUAUGG
RNA 2: GGGAAUGGAUCCACAUCUACGAAUUCGUACCAUAGAGAGGUUAUCCGCUCACCCAGAUCGGAAGAGCACACGU
B4: target 1 MT 5'PFS UAG 3'PFS UCC (mixed)
RNA 1: CACCCGUGCAAAAAUGCAGGGGUCUAAAACUGAGCGGAUAACCUCUCUAUGG
RNA 2: GGGAAUGGAUCCACAUCUACGAAUUCUAGCCAUAGAGAGGUUAUCCGCUCAUCCAGAUCGGAAGAGCACACGU
B5: target 1 insA 3' of 8,insA 3' of 3 (mixed)
RNA 1: CACCCGUGCAAAAAUGCAGGGGUCUAAAACUGAGCGGAUAACCUCUCUAUGG
RNA 2: GGGAAUGGAUCCACAUCUACGAAUUCGUACCAUAGAGAGGUUAUACCGCUACACCGAGAUCGGAAGAGCACACGU
B6: target 1 MT 5'PFS GUA 3'PFS CCA (mixed)
RNA 1: CACCCGUGCAAAAAUGCAGGGGUCUAAAACUGAGCGGAUAACCUCUCUAUGG
RNA 2: GGGAAUGGAUCCACAUCUACGAAUUCGUACCAUAGAGAGGUUAUCCGCUCACCAAGAUCGGAAGAGCACACGU
B7: target 1 MT 5'PFS UAG 3'PFS UCA (mixed)
RNA 1: CACCCGUGCAAAAAUGCAGGGGUCUAAAACUGAGCGGAUAACCUCUCUAUGG
RNA 2: GGGAAUGGAUCCACAUCUACGAAUUCUAGCCAUAGAGAGGUUAUCCGCUCAUCAAGAUCGGAAGAGCACACGU
B8: target 1 MT 5'PFS UAG 3'PFS UCG (mixed)
RNA 1: CACCCGUGCAAAAAUGCAGGGGUCUAAAACUGAGCGGAUAACCUCUCUAUGG
RNA 2: GGGAAUGGAUCCACAUCUACGAAUUCUAGCCAUAGAGAGGUUAUCCGCUCAUCGAGAUCGGAAGAGCACACGU
B9: target 1 MT 5'PFS GUA 3'PFS CCU (mixed)
RNA 1: CACCCGUGCAAAAAUGCAGGGGUCUAAAACUGAGCGGAUAACCUCUCUAUGG
RNA 2: GGGAAUGGAUCCACAUCUACGAAUUCGUACCAUAGAGAGGUUAUCCGCUCACCUAGAUCGGAAGAGCACACGU
B10: target 1 MT 5'PFS ACA 3'PFS CGG (mixed)
RNA 1: CACCCGUGCAAAAAUGCAGGGGUCUAAAACUGAGCGGAUAACCUCUCUAUGG
RNA 2: GGGAAUGGAUCCACAUCUACGAAUUCACACCAUAGAGAGGUUAUCCGCUCACGGAGAUCGGAAGAGCACACGU
B11: target 1 MT 5'PFS UUA 3'PFS UAU (mixed)
RNA 1: CACCCGUGCAAAAAUGCAGGGGUCUAAAACUGAGCGGAUAACCUCUCUAUGG
RNA 2: GGGAAUGGAUCCACAUCUACGAAUUCUUACCAUAGAGAGGUUAUCCGCUCAUAUAGAUCGGAAGAGCACACGU
B12: target 1 MT 5'PFS UCG 3'PFS CGA (mixed)
RNA 1: CACCCGUGCAAAAAUGCAGGGGUCUAAAACUGAGCGGAUAACCUCUCUAUGG
RNA 2: GGGAAUGGAUCCACAUCUACGAAUUCUCGCCAUAGAGAGGUUAUCCGCUCACGAAGAUCGGAAGAGCACACGU
B13: target 1 MT 5'PFS AGA 3'PFS ACU (mixed)
RNA 1: CACCCGUGCAAAAAUGCAGGGGUCUAAAACUGAGCGGAUAACCUCUCUAUGG
RNA 2: GGGAAUGGAUCCACAUCUACGAAUUCAGACCAUAGAGAGGUUAUCCGCUCAACUAGAUCGGAAGAGCACACGU
B14: target 1 MT 5'PFS CAA 3'PFS ACA (mixed)
RNA 1: CACCCGUGCAAAAAUGCAGGGGUCUAAAACUGAGCGGAUAACCUCUCUAUGG
RNA 2: GGGAAUGGAUCCACAUCUACGAAUUCCAACCAUAGAGAGGUUAUCCGCUCAACAAGAUCGGAAGAGCACACGU
B15: target 1 MT 5'PFS GGG 3'PFS GCA (mixed)
RNA 1: CACCCGUGCAAAAAUGCAGGGGUCUAAAACUGAGCGGAUAACCUCUCUAUGG
RNA 2: GGGAAUGGAUCCACAUCUACGAAUUCGGGCCAUAGAGAGGUUAUCCGCUCAGCAAGAUCGGAAGAGCACACGU
B16: target 1 insA 3' of 19,insG 3' of 6 (mixed)
RNA 1: CACCCGUGCAAAAAUGCAGGGGUCUAAAACUGAGCGGAUAACCUCUCUAUGG
RNA 2: GGGAAUGGAUCCACAUCUACGAAUUCGUACCAUAAGAGAGGUUAUCCGGCUCACCGAGAUCGGAAGAGCACACGU
B17: target 1 MT 5'PFS CAA 3'PFS ACG (mixed)
RNA 1: CACCCGUGCAAAAAUGCAGGGGUCUAAAACUGAGCGGAUAACCUCUCUAUGG
RNA 2: GGGAAUGGAUCCACAUCUACGAAUUCCAACCAUAGAGAGGUUAUCCGCUCAACGAGAUCGGAAGAGCACACGU
B18: target 1 MT 5'PFS UCG 3'PFS CGU (mixed)
RNA 1: CACCCGUGCAAAAAUGCAGGGGUCUAAAACUGAGCGGAUAACCUCUCUAUGG
RNA 2: GGGAAUGGAUCCACAUCUACGAAUUCUCGCCAUAGAGAGGUUAUCCGCUCACGUAGAUCGGAAGAGCACACGU
B19: target 1 MT 5'PFS UGC 3'PFS AAG (mixed)
RNA 1: CACCCGUGCAAAAAUGCAGGGGUCUAAAACUGAGCGGAUAACCUCUCUAUGG
RNA 2: GGGAAUGGAUCCACAUCUACGAAUUCUGCCCAUAGAGAGGUUAUCCGCUCAAAGAGAUCGGAAGAGCACACGU
B20: target 1 MT 5'PFS AGA 3'PFS ACG (mixed)
RNA 1: CACCCGUGCAAAAAUGCAGGGGUCUAAAACUGAGCGGAUAACCUCUCUAUGG
RNA 2: GGGAAUGGAUCCACAUCUACGAAUUCAGACCAUAGAGAGGUUAUCCGCUCAACGAGAUCGGAAGAGCACACGU
B21: target 1 MT 5'PFS CAA 3'PFS ACU (mixed)
RNA 1: CACCCGUGCAAAAAUGCAGGGGUCUAAAACUGAGCGGAUAACCUCUCUAUGG
RNA 2: GGGAAUGGAUCCACAUCUACGAAUUCCAACCAUAGAGAGGUUAUCCGCUCAACUAGAUCGGAAGAGCACACGU
B22: target 1 MT 5'PFS AGA 3'PFS ACA (mixed)
RNA 1: CACCCGUGCAAAAAUGCAGGGGUCUAAAACUGAGCGGAUAACCUCUCUAUGG
RNA 2: GGGAAUGGAUCCACAUCUACGAAUUCAGACCAUAGAGAGGUUAUCCGCUCAACAAGAUCGGAAGAGCACACGU
B23: target 1 MT 5'PFS GGG 3'PFS GCU (mixed)
RNA 1: CACCCGUGCAAAAAUGCAGGGGUCUAAAACUGAGCGGAUAACCUCUCUAUGG
RNA 2: GGGAAUGGAUCCACAUCUACGAAUUCGGGCCAUAGAGAGGUUAUCCGCUCAGCUAGAUCGGAAGAGCACACGU
B24: target 1 MT 5'PFS AGA 3'PFS ACC (mixed)
RNA 1: CACCCGUGCAAAAAUGCAGGGGUCUAAAACUGAGCGGAUAACCUCUCUAUGG
RNA 2: GGGAAUGGAUCCACAUCUACGAAUUCAGACCAUAGAGAGGUUAUCCGCUCAACCAGAUCGGAAGAGCACACGU
B25: target 1 MT 5'PFS AGA 3'PFS UCA (mixed)
RNA 1: CACCCGUGCAAAAAUGCAGGGGUCUAAAACUGAGCGGAUAACCUCUCUAUGG
RNA 2: GGGAAUGGAUCCACAUCUACGAAUUCAGACCAUAGAGAGGUUAUCCGCUCAUCAAGAUCGGAAGAGCACACGU
B26: target 1 MT 5'PFS AGA 3'PFS UCC (mixed)
RNA 1: CACCCGUGCAAAAAUGCAGGGGUCUAAAACUGAGCGGAUAACCUCUCUAUGG
RNA 2: GGGAAUGGAUCCACAUCUACGAAUUCAGACCAUAGAGAGGUUAUCCGCUCAUCCAGAUCGGAAGAGCACACGU
B27: target 1 C6U,C7U (mixed)
RNA 1: CACCCGUGCAAAAAUGCAGGGGUCUAAAACUGAGCGGAUAACCUCUCUAUGG
RNA 2: GGGAAUGGAUCCACAUCUACGAAUUCGUACCAUAGAGAGGUUAUUUGCUCACCGAGAUCGGAAGAGCACACGU
B28: target 1 MT 5'PFS UCG 3'PFS AGU (mixed)
RNA 1: CACCCGUGCAAAAAUGCAGGGGUCUAAAACUGAGCGGAUAACCUCUCUAUGG
RNA 2: GGGAAUGGAUCCACAUCUACGAAUUCUCGCCAUAGAGAGGUUAUCCGCUCAAGUAGAUCGGAAGAGCACACGU

molecular target: T1, EsCas13d, nuclease-dead; assay: crRNA (strand 1, pre-loaded); Mg2+; 40 mM Tris-HCl pH 7.5, 150 mM NaCl, 6 mM MgCl2, 1 mM DTT, 0.1% Tween-20, 0.2 mg/ml BSA; 25 C; 10 min per concentration, then washed; settings: tags: His6-TwinStrep-SUMO cleaved; N-terminal SNAP kept (SNAP-Surface 488); label: 3' end held by stalled T7 RNA polymerase

In order of falling Kd:
1. B18  ~100 nM
2. B2  84 ± 33 nM
3. B19  76 ± 33.5 nM
4. B1  ~75.5 nM
5. B10  ~70 nM
6. B4  63.5 ± 20 nM
7. B25  61 ± 23 nM
8. B22  56 ± 18 nM
9. B12  51 ± 22.5 nM
10. B28  50 ± 24.5 nM
11. B26  49.5 ± 19 nM
12. B24  47 ± 16 nM
13. B15  36 ± 13 nM
14. B13  ~32 nM
15. B20  29.5 ± 7 nM
16. B14  ~27 nM
17. B16  25.7 ± 2.3 nM
18. B7  25 ± 5 nM
19. B21  ~20.5 nM
20. B8  20.1 ± 3.45 nM
21. B6  19.6 ± 2.4 nM
22. B17  15 ± 5.5 nM
23. B11  12.7 ± 1.35 nM
24. B3  12.6 ± 2.1 nM
25. B5  10.4 ± 0.4 nM
26. B23  7.45 ± 1.45 nM
27. B9  7.3 ± 0.8 nM
28. B27  6.3 ± 0.5 nM
